According to patent publication US20200123268A1 (UNIVERSIT DEGLI STUDI MAGNA GRAECIA CATANZARO, published 2020):
Where a chain is given by its changes, count along the chain named. Blank lines part the entries; values can stand above or below the binder they belong to.

Legend:
[1] = biological target: T1, CD43 #5 (truncated CD43, aa 91-400), expressed in HEK293T cells (human, UniProt P16150 91-400); assay: western blot of lysates of transfected HEK293T cells
T1 construct: also called CD43 Clone #5; not shown: His tag from the vector pLenti-CMV-(insert)-Histag-GFP-2A-Puro
T1 sequence: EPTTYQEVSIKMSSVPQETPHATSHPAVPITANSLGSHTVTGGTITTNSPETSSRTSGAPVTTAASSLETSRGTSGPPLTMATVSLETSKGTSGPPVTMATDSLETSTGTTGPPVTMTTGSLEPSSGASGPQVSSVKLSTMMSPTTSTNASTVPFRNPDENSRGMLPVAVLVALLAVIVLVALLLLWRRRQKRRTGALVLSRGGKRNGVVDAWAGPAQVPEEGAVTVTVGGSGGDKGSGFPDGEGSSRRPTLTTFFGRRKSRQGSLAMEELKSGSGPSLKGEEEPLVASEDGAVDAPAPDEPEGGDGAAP

[2] = biological target: T2, CD43 #6 (CD43 with deletion of aa 64 to 78), expressed in HEK293T cells (human, UniProt P16150 20-400); assay: as above
T2 construct: also called CD43 Clone #6; not shown: His tag from the vector pLenti-CMV-(insert)-Histag-GFP-2A-Puro
T2 sequence: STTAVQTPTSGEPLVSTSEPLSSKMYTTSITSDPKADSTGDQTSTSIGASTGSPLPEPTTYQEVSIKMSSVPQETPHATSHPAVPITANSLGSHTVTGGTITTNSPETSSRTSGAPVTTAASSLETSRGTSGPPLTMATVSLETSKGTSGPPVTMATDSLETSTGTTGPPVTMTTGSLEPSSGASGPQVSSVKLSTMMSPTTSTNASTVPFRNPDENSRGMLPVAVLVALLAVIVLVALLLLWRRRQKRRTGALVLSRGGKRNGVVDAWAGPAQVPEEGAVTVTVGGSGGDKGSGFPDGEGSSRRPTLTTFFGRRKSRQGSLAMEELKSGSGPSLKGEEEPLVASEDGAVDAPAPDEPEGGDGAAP

[3] = biological target: T3, human CD43, endogenous, on primary cells and cell lines that carry the UMG1 epitope (human, UniProt P16150 20-400, native glycosylation of the cell concerned); assay: competition flow cytometry on CEM cells against 1 ug/ml h-UMG1-PE
T3 construct: also called UMG1 antigen; the target
T3 sequence: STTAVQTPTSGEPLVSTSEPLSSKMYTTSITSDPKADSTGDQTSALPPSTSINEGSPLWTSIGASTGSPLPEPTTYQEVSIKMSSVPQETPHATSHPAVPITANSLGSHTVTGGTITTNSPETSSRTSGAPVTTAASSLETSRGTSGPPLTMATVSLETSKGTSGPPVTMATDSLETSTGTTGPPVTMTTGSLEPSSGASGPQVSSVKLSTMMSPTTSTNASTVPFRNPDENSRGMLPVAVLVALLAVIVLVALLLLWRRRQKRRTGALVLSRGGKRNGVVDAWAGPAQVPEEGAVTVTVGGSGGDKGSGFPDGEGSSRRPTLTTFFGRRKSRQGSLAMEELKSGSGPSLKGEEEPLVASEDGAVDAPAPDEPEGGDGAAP
Procedure: (§1) Approximately, 500,000 cells were collected and stained for each test. Cell were analyzed and measured with FACS Canto (Becton Dickinson) and analyzed by DIVA software (BD FACSDiva™ software). For each measurement 10,000 events were gated using the DIVA software. Each experiment was performed in triplicate.

[4] = biological target: T3, human CD43, endogenous, on primary …; assay: competition flow cytometry on HPB-ALL cells against 1 ug/ml h-UMG1-PE
Procedure: as §1

[5] = biological target: T4, recombinant human CD43 extracellular portion (aa 20-253) produced in E. coli (human, UniProt P16150 20-253); assay: SPRi (PlexArray HT), antibody printed on the chip, CD43 aa 20-253 from E. coli as analyte, 25 C
T4 construct: Made in E. coli, without mammalian glycosylation; No tags are stated; also called aglycosylated extracellular portion of CD43; unglycosylated-CD43 protein
T4 sequence: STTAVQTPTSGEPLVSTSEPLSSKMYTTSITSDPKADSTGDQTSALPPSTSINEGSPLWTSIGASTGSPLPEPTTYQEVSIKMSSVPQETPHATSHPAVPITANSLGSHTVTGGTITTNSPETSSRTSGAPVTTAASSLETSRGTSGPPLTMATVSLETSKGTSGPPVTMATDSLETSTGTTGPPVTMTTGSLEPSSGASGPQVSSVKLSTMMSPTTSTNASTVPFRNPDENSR
Procedure: (§2) Antibodies dissolved in water were manually printed onto the bare gold-coated (thickness 47 nm) PlexArray Nanocapture Sensor Chip (Plexera Bioscience, Seattle, Wash., US) at 40% humidity. Different concentration of the analytes (CD43) were tested for affinity. Each concentration was printed in replicate, and each spot contained 0.2 uL of sample solution. The chip was incubated in 80% humidity at 4° C. for overnight, and rinsed with 10×PBST for 10 min, 1×PBST for 10 min, and deionized water twice for 10 min. The chip was then blocked with 5% (w/v) non-fat milk in water overnight, and washed with 10×PBST for 10 min, lx PBST for 10 min, and deionized water twice for 10 min before being dried under a stream of nitrogen prior to use. SPRi measurements were performed with PlexAray HT (Plexera Bioscience, Seattle, Wash., US). Collimated light (660 nm) passes through the coupling prism, reflects off the SPR-active gold surface, and is received by the CCD camera. […] The signal changes after binding and washing (in AU) are recorded as the assay value.
(§3) Selected protein-grafted regions in the SPR images were analyzed, and the average reflectivity variations of the chosen areas were plotted as a function of time. Real-time binding signals were recorded and analyzed by Data Analysis Module (DAM, Plexera Bioscience, Seattle, Wash., US). […]

[6] = biological target: T4, recombinant human CD43 extracellular …; assay: SPRi (PlexArray HT), antibody printed on the chip, Recombinant Human CD-43 (AA20-253) as analyte at 2.84 to 45.6 nM, 25 C
Procedure: as §2, §3

[7] = biological target: T1, CD43 #5 (truncated CD43, aa 91-400), …; assay: flow cytometry on transfected HEK293T cells, percent h-UMG1-PE positive among GFP positive cells
Procedure: (§4) Each vector was transiently expressed in HEK293T cells by using Lipofectamine LTX (Thermo Fisher Scientific, MA, USA) according to the manufacturer's protocol. HEK293T cells were maintained at 37° C. and 5% CO₂ in DMEM supplemented with 10% FBS and 1% penicillin/streptomycin (ThermoFisher Scientific, MA, USA). 72 h after transfection, cells were subjected to western blot or flow cytometry (FACS) analysis.
(§5) Samples were acquired by flow cytometry (LSRFortessa™ X-20, BD) and analyzed by DIVA software (BD FACSDiva™ software). A minimum of 20,000 events were gated for each measurement.

[8] = biological target: T2, CD43 #6 (CD43 with deletion of aa 64 to …); assay: as above
Procedure: as §4, §5

[9] = biological target: T5, CD43 #7 (CD43 with deletion of aa 69), expressed in HEK293T cells (human, UniProt P16150 20-400); assay: flow cytometry on transfected HEK293T cells, 1 ug/ml h-UMG1-PE, percent positive among GFP positive cells
T5 construct: also called CD43 Clone #7; not shown: His tag from the vector pLenti-CMV-(insert)-Histag-GFP-2A-Puro
T5 sequence: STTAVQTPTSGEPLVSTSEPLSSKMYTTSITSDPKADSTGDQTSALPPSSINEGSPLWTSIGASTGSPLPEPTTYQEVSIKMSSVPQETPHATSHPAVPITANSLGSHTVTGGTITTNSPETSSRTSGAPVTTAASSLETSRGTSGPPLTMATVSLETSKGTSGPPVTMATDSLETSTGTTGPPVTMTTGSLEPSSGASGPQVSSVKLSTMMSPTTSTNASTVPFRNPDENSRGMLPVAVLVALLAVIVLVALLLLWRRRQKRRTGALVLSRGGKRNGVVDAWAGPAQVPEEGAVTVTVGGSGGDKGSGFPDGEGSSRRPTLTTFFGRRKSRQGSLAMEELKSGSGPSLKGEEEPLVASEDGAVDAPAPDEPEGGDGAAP

[10] = biological target: T6, CD43 #8 (CD43 aa 1-400 with T69N), expressed in HEK293T cells (human, UniProt P16150 20-400); assay: as above
T6 construct: also called CD43 Clone #8; not shown: His tag from the vector pLenti-CMV-(insert)-Histag-GFP-2A-Puro
T6 sequence: T3 sequence with T50N

binding result [1]: no binding (tested: 1:500 dilution) | binding result [2]: no binding (tested: 1:500 dilution) | IC50 (read off the curve) [3]: ~0.04 µg/mL | IC50 (read off the curve) [4]: ~0.4 µg/mL | Kd [5]: 99.4 nM | koff [6]: 0.000511 s⁻¹ | kon [6]: 5140 M⁻¹ s⁻¹
B1: h-UMG1 (humanized UMG1 antibody H3-L4) (antibody, human IgG1, kappa, V domains shown)
VH: EVQLVESGGGLVQPGGSLRLSCVASGFTFSSFGMHWVRQAPGKGLEWVAYISSGSGNFYYVDTVKGRFTISRDNAKNSLYLQMNSLRAEDTAVYYCARSTYYHGSRGAMDYWGQGTLVTVSS
VL: QVVMTQSPAFLSVTPGEKVTITCSASSSVSSMYWYQLKPDQAPKLLIYDTSKMASGVPIRFSGSGSGTDFTFTVSSVEAEDAATYYCQQWSSYPPITFGGGTKVEIKR
notes: The full chains are given as Human Heavy Chain (VH3) and Human Light Chain (VL4); IgG1; also called unconjugated h-UMG1

binding result [7]: no binding (tested: 1 ug/ml) | binding result [8]: no binding (tested: 1 ug/ml) | binding result [9]: binds | binding result [10]: binds
B2: h-UMG1-PE (phycoerythrin-conjugated h-UMG1) (antibody, human IgG1, kappa, V domains shown)
VH: B1 VH
VL: B1 VL
modifications: phycoerythrin conjugate, site not stated
notes: also called h-UMG1-PE conjugated antibody
